Data reported in US5633145, “TNFα receptor-derived binding protein” (The Mathilda and Terence Kennedy Institute of Rheumatology, dated 1997).

Legend:
recombinant human TNFβ = target: T1, recombinant human TNFβ (human, UniProt P01374); assay: competition with 1 nM 125I-TNFα on COS-7 cells transfected with the TNFR cDNA; competitor 125I-TNFα
T1 sequence: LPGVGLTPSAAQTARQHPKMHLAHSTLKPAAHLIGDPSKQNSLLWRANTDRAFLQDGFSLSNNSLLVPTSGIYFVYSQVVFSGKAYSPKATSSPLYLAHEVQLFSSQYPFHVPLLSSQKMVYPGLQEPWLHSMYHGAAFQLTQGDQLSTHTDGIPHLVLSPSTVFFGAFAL
Description: (§1) COS cells transfected with the TNFα receptor cDNA (prTNFR, 1300 bp EcoRI fragment) were incubated for 24 hours and then seeded into six well tissue culture plates (Nunc) at 4.5 ×10^8 cells per well. The cells were incubated for a further 48 hours and then receptor expression was quantitated by radioligand binding for 2 hours at 4° C. […] Binding data was analysed by the method of Scatchard (14).

recombinant human TNFα = recombinant human TNFα (human, UniProt P01375, radioiodinated (125I, Iodogen method) in the radioligand binding assays; unlabelled as competitor and in the cytotoxicity assays); assay: radioligand binding of 125I-TNFα to COS cells transfected with prTNFR, Scatchard analysis, 4 °C
Description: as §1
The resulting plasmid was transfected into COS cells which were analyzed for TNF receptor expression after three days.

B1: recombinant human TNFα 55 kD receptor expressed in COS-7 cells from plasmid prTNFR (receptor)
chain: DSVCPQGKYIHPQNNSICCTKCHKGTYLYNDCPGPGQDTDCRECESGSFTASENHLRHCLSCSKCRKEMGQVEISSCTVDRDTVCGCRKNQYRHYWSENLFQCFNCSLCLNGTVHLSCQEKQNTVCTCHAGFFLRENECVSCSNCKKSLECTKLCLPQIENVKGTEDSGTTVLLPLVIFFGLCLLSLLFIGLMYRYQRWKSKLYSIVCGKSTPEKEGELEGTTTKPLAPNPSFSPTPGFTPTLGFSPVPSSTFTSSSTYTPGDCPNFAAPRREVAPPYQGADPILATALASDPIPNPLQKWEDSAHKPQSLDTDDPRTLYAVVENVPPLRWKEF
**Q.** What does the source list for B1?
**A.** binding result (recombinant human TNFβ): binds; Ka (recombinant human TNFα): 2.5e+09 M⁻¹
